Tests used:
[1] = molecular target: SpA in the cell wall of Staphylococcus aureus (strain ATCC #25923 and clinical isolate OOX) (Staphylococcus aureus) (UniProt P38507); assay: flow cytometry: S. aureus clinical isolate OOX incubated with biotinylated antibody (negative control), then streptavidin-APC
[2] = molecular target: SpA in the cell wall of Staphylococcus aureus (strain ATCC #25923 and clinical isolate OOX) (Staphylococcus aureus) (UniProt P38507); assay: flow cytometry: S. aureus strain ATCC #25923 incubated with biotinylated antibody (negative control), then streptavidin-APC
[3] = molecular target: SpA in the cell wall of Staphylococcus aureus (strain ATCC #25923 and clinical isolate OOX) (Staphylococcus aureus) (UniProt P38507); assay: flow cytometry: S. aureus clinical isolate OOX pre-incubated with human sera for 15 minutes, then biotinylated MABp1-IgG3 (isotype-matched negative control), then streptavidin-APC
[4] = molecular target: SpA in the cell wall of Staphylococcus aureus (strain ATCC #25923 and clinical isolate OOX) (Staphylococcus aureus) (UniProt P38507); assay: flow cytometry: S. aureus strain ATCC #25923 by the legend (sheet prints 25935) pre-incubated with human sera for 15 minutes, then biotinylated MABp1-IgG3 (isotype-matched negative control), then streptavidin-APC
[5] = molecular target: MABp1-IgG1; assay: flow cytometry: S. aureus strain ATCC #25923 incubated with unlabeled MABp1 (negative control), then biotinylated recombinant Fcγ receptor 1, then streptavidin-APC
[6] = molecular target: MABp1-IgG1; assay: flow cytometry: S. aureus clinical isolate OOX incubated with unlabeled MABp1 (negative control), then biotinylated recombinant Fcγ receptor 1, then streptavidin-APC

biotinylated recombinant Fcγ receptor 1, sequence (P12314 16-292): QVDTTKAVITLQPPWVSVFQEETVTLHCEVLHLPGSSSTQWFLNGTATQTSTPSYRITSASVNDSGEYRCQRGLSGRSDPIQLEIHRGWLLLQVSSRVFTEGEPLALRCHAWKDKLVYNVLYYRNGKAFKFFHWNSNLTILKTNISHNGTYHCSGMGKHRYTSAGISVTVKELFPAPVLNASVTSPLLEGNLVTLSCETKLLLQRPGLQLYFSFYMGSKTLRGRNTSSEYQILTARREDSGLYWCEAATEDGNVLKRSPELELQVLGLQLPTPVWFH
MABp1-IgG3 (antibody), sequence (VH): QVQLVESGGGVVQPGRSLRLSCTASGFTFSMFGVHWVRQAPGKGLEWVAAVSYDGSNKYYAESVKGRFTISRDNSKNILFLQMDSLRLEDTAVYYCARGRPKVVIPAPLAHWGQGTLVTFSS
MABp1-IgG3 (antibody), sequence (VL): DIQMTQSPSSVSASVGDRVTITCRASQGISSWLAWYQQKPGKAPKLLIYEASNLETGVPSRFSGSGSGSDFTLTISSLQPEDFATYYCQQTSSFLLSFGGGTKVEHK

MABp1-IgG1 (antibody)
Mean:FL4-H [1]: 29.8
Mean:FL4-H [2]: 46.7

MABp1-IgG3 (antibody)
Mean:FL4-H [3]: 19.1
Mean:FL4-H [4]: 10.3

biotinylated recombinant Fcγ receptor 1
Mean:FL4-H [5]: 19.8
Mean:FL4-H [6]: 18.6

Reference: US20210017257A1
